Experimental data as given in doi:10.1101/456046.

Molecular target: Photosystem II subunit S (PsbS) from Physcomitrella patens (Physcomitrella patens)
Assay: SDS-PAGE

stoichiometry N: 2
Substance: Photosystem II subunit S (PsbS) from Physcomitrella patens (natural protein)
